From paper PMC3553014, “Albumin Stimulates the Activity of the Human UDP-Glucuronosyltransferases 1A7, 1A8, 1A10, 2A1 and 2B15, but the Effects Are Enzyme and Substrate Dependent” (PLoS ONE, 2013)

T1: UGT1A8 (Homo sapiens, UniProt Q9HAW9)
T1 sequence (Q9HAW9 26-530): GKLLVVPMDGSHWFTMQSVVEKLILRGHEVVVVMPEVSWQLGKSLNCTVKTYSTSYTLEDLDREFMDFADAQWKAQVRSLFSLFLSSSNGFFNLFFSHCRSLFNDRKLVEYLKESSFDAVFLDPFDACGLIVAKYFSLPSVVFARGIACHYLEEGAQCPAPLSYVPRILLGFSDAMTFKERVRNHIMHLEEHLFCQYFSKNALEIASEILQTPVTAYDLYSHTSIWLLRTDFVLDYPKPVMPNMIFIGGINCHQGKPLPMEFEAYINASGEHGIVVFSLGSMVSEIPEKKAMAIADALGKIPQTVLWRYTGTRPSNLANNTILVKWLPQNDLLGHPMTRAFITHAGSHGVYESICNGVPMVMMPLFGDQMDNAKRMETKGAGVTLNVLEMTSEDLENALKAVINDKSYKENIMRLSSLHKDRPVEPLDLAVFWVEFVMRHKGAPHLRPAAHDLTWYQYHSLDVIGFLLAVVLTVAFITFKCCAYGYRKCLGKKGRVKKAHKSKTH


Tests used:
UGT1A8 = target: T1, UGT1A8; experiment: UGT1A8-catalyzed glucuronidation, enzyme kinetics; settings: 1% DMSO; entacapone glucuronidation; absence and presence of 0.1% BSA
Experimental: Recombinant human UGTs 1A1, 1A6, 1A7, 1A8, 1A10, 2A1, 2B4, 2B7 and 2B17 were expressed as His-tagged proteins in baculovirus-infected insect cells as described previously [14]. […] Protein concentrations were determined by the BCA method (Pierce Biotechnology, Rockford, IL, USA).
(§1) The protein concentrations and incubation times for the enzyme kinetic assays were selected based on preliminary assays in order to ensure that the product formation was within the linear range with respect to both protein concentration and time, and that the substrate consumption during the reaction was less than 10%. The initial velocity measurements were performed in either duplicates or triplicates and they are presented as the average values and S.E.
The glucuronidation rates by recombinant enzymes are reported as “expression normalized” values. The relative expression level of each recombinant UGT that was produced in our laboratory was determined using immunoblotting, as previously described [14], [19]. The dot blot assays were performed in triplicate and the average value was used for normalization. […] The “expression normalized” glucuronidation rates were calculated by dividing the measured glucuronidation rates with relative expression level of the each given recombinant UGT.
(§2) In assays containing BSA, the total concentrations of substrate were corrected according to the measured drug binding to BSA, under the specific conditions of each glucuronidation assay.

[1] = substrate: Cc1cc(=O)oc2cc(O)ccc12; experiment: purified protein, by the assay type; settings: pH 7.4
[2] = substrate: Oc1cccc2ccccc12; experiment: purified protein, by the assay type; settings: pH 7.4
[3] = substrate: CCN(CC)C(=O)/C(C#N)=C/c1cc(O)c(O)c([N+](=O)[O-])c1; experiment: purified protein, by the assay type; settings: pH 7.4
Experimental: Protein concentrations were determined by the BCA method (Pierce Biotechnology, Rockford, IL, USA).
as §1
The HPLC system consisted of an Agilent 1100 series degasser, binary pump, 100-vial autosampler, thermostated column compartment, multiple wavelengths UV detector, and fluorescence detector (Agilent Technologies, Palo Alto, CA, USA). […] The resulting chromatograms were analyzed with Agilent ChemStation software (rev. B.01.01) on Windows XP Professional. The UPLC system consisted of a Waters Acquity UPLC equipped with column manager, sample manager, binary solvent pump, and photodiode array UV detector (Waters, Milford, MA, USA). The UV detector was equipped with high-sensitivity 2.4 µL flow cell.
as §2

| Molecule | reduction of the UGT activity (UGT1A8) [%] | K0.5 [1] | Vmax [1] [µmol/min/mg] | K0.5 [2] | K0.5 [3] | Vmax [3] [µmol/min/mg] |
| --- | --- | --- | --- | --- | --- | --- |
| C[S+](C)[O-] [DMSO, Dimethyl sulfoxide] | ≤ 15 |  |  |  |  |  |
| UGT1A6 (Homo sapiens) (protein) DKLLVVPQDGSHWLSMKDIVEVLSDRGHEIVVVVPEVNLLLKESKYYTRKIYPVPYDQEELKNRYQSFGNNHFAERSFLTAPQTEYRNNMIVIGLYFINCQSLLQDRDTLNFFKESKFDALFTDPALPCGVILAEYLGLPSVYLFRGFPCSLEHTFSRSPDPVSYIPRCYTKFSDHMTFSQRVANFLVNLLEPYLFYCLFSKYEELASAVLKRDVDIITLYQKVSVWLLRYDFVLEYPRPVMPNMVFIGGINCKKRKDLSQEFEAYINASGEHGIVVFSLGSMVSEIPEKKAMAIADALGKIPQTVLWRYTGTRPSNLANNTILVKWLPQNDLLGHPMTRAFITHAGSHGVYESICNGVPMVMMPLFGDQMDNAKRMETKGAGVTLNVLEMTSEDLENALKAVINDKSYKENIMRLSSLHKDRPVEPLDLAVFWVEFVMRHKGAPHLRPAAHDLTWYQYHSLDVIGFLLAVVLTVAFITFKCCAYGYRKCLGKKGRVKKAHKSKTH |  | 76.4±15.1(45.3–107.5) uM | 0.0052 | 8.07±0.48(7.08–9.06) uM |  |  |
| UGT1A7 (Homo sapiens) (protein) GKLLVVPMDGSHWFTMQSVVEKLILRGHEVVVVMPEVSWQLGRSLNCTVKTYSTSYTLEDQDREFMVFADARWTAPLRSAFSLLTSSSNGIFDLFFSNCRSLFNDRKLVEYLKESCFDAVFLDPFDACGLIVAKYFSLPSVVFARGIFCHYLEEGAQCPAPLSYVPRLLLGFSDAMTFKERVWNHIMHLEEHLFCPYFFKNVLEIASEILQTPVTAYDLYSHTSIWLLRTDFVLEYPKPVMPNMIFIGGINCHQGKPVPMEFEAYINASGEHGIVVFSLGSMVSEIPEKKAMAIADALGKIPQTVLWRYTGTRPSNLANNTILVKWLPQNDLLGHPMTRAFITHAGSHGVYESICNGVPMVMMPLFGDQMDNAKRMETKGAGVTLNVLEMTSEDLENALKAVINDKSYKENIMRLSSLHKDRPVEPLDLAVFWVEFVMRHKGAPHLRPAAHDLTWYQYHSLDVIGFLLAVVLTVAFITFKCCAYGYRKCLGKKGRVKKAHKSKTH |  |  |  |  | 33.2±4.0(24.9–41.6) uM | 0.00015 |
| UGT1A8 (Homo sapiens) (protein) GKLLVVPMDGSHWFTMQSVVEKLILRGHEVVVVMPEVSWQLGKSLNCTVKTYSTSYTLEDLDREFMDFADAQWKAQVRSLFSLFLSSSNGFFNLFFSHCRSLFNDRKLVEYLKESSFDAVFLDPFDACGLIVAKYFSLPSVVFARGIACHYLEEGAQCPAPLSYVPRILLGFSDAMTFKERVRNHIMHLEEHLFCQYFSKNALEIASEILQTPVTAYDLYSHTSIWLLRTDFVLDYPKPVMPNMIFIGGINCHQGKPLPMEFEAYINASGEHGIVVFSLGSMVSEIPEKKAMAIADALGKIPQTVLWRYTGTRPSNLANNTILVKWLPQNDLLGHPMTRAFITHAGSHGVYESICNGVPMVMMPLFGDQMDNAKRMETKGAGVTLNVLEMTSEDLENALKAVINDKSYKENIMRLSSLHKDRPVEPLDLAVFWVEFVMRHKGAPHLRPAAHDLTWYQYHSLDVIGFLLAVVLTVAFITFKCCAYGYRKCLGKKGRVKKAHKSKTH |  | 134±9(115–154) uM | 0.0012 |  | 73.1±3.7(65.4–80.7) uM | 0.0012 |
| UGT1A10 (Homo sapiens) (protein) GKLLVVPMDGSHWFTMQSVVEKLILRGHEVVVVMPEVSWQLERSLNCTVKTYSTSYTLEDQNREFMVFAHAQWKAQAQSIFSLLMSSSSGFLDLFFSHCRSLFNDRKLVEYLKESSFDAVFLDPFDTCGLIVAKYFSLPSVVFTRGIFCHHLEEGAQCPAPLSYVPNDLLGFSDAMTFKERVWNHIVHLEDHLFCQYLFRNALEIASEILQTPVTAYDLYSHTSIWLLRTDFVLDYPKPVMPNMIFIGGINCHQGKPLPMEFEAYINASGEHGIVVFSLGSMVSEIPEKKAMAIADALGKIPQTVLWRYTGTRPSNLANNTILVKWLPQNDLLGHPMTRAFITHAGSHGVYESICNGVPMVMMPLFGDQMDNAKRMETKGAGVTLNVLEMTSEDLENALKAVINDKSYKENIMRLSSLHKDRPVEPLDLAVFWVEFVMRHKGAPHLRPAAHDLTWYQYHSLDVIGFLLAVVLTVAFITFKCCAYGYRKCLGKKGRVKKAHKSKTH |  |  |  |  | 56.7±2.3(51.9–61.5) uM | 0.00091 |
| UGT1A1 (Homo sapiens) (protein) HAGKILLIPVDGSHWLSMLGAIQQLQQRGHEIVVLAPDASLYIRDGAFYTLKTYPVPFQREDVKESFVSLGHNVFENDSFLQRVIKTYKKIKKDSAMLLSGCSHLLHNKELMASLAESSFDVMLTDPFLPCSPIVAQYLSLPTVFFLHALPCSLEFEATQCPNPFSYVPRPLSSHSDHMTFLQRVKNMLIAFSQNFLCDVVYSPYATLASEFLQREVTVQDLLSSASVWLFRSDFVKDYPRPIMPNMVFVGGINCLHQNPLSQEFEAYINASGEHGIVVFSLGSMVSEIPEKKAMAIADALGKIPQTVLWRYTGTRPSNLANNTILVKWLPQNDLLGHPMTRAFITHAGSHGVYESICNGVPMVMMPLFGDQMDNAKRMETKGAGVTLNVLEMTSEDLENALKAVINDKSYKENIMRLSSLHKDRPVEPLDLAVFWVEFVMRHKGAPHLRPAAHDLTWYQYHSLDVIGFLLAVVLTVAFITFKCCAYGYRKCLGKKGRVKKAHKSKTH |  | 72.6±6.9(58.2–87.0) uM | 0.00011 | 101±11(78–123) uM |  |  |
| UGT2B7 (Homo sapiens) (protein) GKVLVWAAEYSHWMNIKTILDELIQRGHEVTVLASSASILFDPNNSSALKIEIYPTSLTKTELENFIMQQIKRWSDLPKDTFWLYFSQVQEIMSIFGDITRKFCKDVVSNKKFMKKVQESRFDVIFADAIFPCSELLAELFNIPFVYSLSFSPGYTFEKHSGGFIFPPSYVPVVMSELTDQMTFMERVKNMIYVLYFDFWFEIFDMKKWDQFYSEVLGRPTTLSETMGKADVWLIRNSWNFQFPYPLLPNVDFVGGLHCKPAKPLPKEMEDFVQSSGENGVVVFSLGSMVSNMTEERANVIASALAQIPQKVLWRFDGNKPDTLGLNTRLYKWIPQNDLLGHPKTRAFITHGGANGIYEAIYHGIPMVGIPLFADQPDNIAHMKARGAAVRVDFNTMSSTDLLNALKRVINDPSYKENVMKLSRIQHDQPVKPLDRAVFWIEFVMRHKGAKHLRVAAHDLTWFQYHSLDVIGFLLVCVATVIFIVTKCCLFCFWKFARKAKKGKND |  | 301±65(165–436) uM | 0.00028 |  |  |  |
| UGT2B15 (Homo sapiens) (protein) GKVLVWPTEYSHWINMKTILEELVQRGHEVTVLTSSASTLVNASKSSAIKLEVYPTSLTKNYLEDSLLKILDRWIYGVSKNTFWSYFSQLQELCWEYYDYSNKLCKDAVLNKKLMMKLQESKFDVILADALNPCGELLAELFNIPFLYSLRFSVGYTFEKNGGGFLFPPSYVPVVMSELSDQMIFMERIKNMIHMLYFDFWFQIYDLKKWDQFYSEVLGRPTTLFETMGKAEMWLIRTYWDFEFPRPFLPNVDFVGGLHCKPAKPLPKEMEEFVQSSGENGIVVFSLGSMISNMSEESANMIASALAQIPQKVLWRFDGKKPNTLGSNTRLYKWLPQNDLLGHPKTKAFITHGGTNGIYEAIYHGIPMVGIPLFADQHDNIAHMKAKGAALSVDIRTMSSRDLLNALKSVINDPVYKENVMKLSRIHHDQPMKPLDRAVFWIEFVMRHKGAKHLRVAAHNLTWIQYHSLDVIAFLLACVATVIFIITKFCLFCFRKLAKKGKKKKRD |  | 29.6±0.9(27.6–31.5) uM | 0.00083 |  |  |  |
